# Results as given in patent US20200115714A1 (GEORGIA TECH RESEARCH, published 2020).
# Numbering of substitutions follows the chain as printed. In names and notes the source's numbering stands.
# T1: E. coli fatty acid biosynthesis acyl carrier protein (E. coli AcpP), P0A6A8
# T1 chain: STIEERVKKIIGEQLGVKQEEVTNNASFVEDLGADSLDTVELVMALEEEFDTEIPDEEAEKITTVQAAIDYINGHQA
# B1: AbTE:G17R with C-terminal His6-tag (pET-28b-AbTE:G17R) (enzyme)
# chain: MGKTILILGDSLSAGYRINPEQGWVALLQKRLDQQFPKQHKVINASVSGETTSGALARLPKLLTTYRPNVVVIELGGNDALRGQPPQMIQSNLEKLIQHSQKAKSKVVVFGMKIPPNYGTAYSQAFENNYKVVSQTYQVKLLPFFLDGVAGHKSLMQNDQIHPNAKAQSILLNNAYPYIKGALHHHHHH
# notes: Purified protein; also called pET-AbTE:G17R
# B2: AbTE:G17R/A165R with C-terminal His6-tag (pET-28b-AbTE:G17R/A165R) (enzyme)
# chain: B1 chain with A165R
# notes: Purified protein; also called pET-AbTE:G17R/A165R
# B3: AbTE:G17E (protein)
# chain: MGKTILILGDSLSAGYEINPEQGWVALLQKRLDQQFPKQHKVINASVSGETTSGALARLPKLLTTYRPNVVVIELGGNDALRGQPPQMIQSNLEKLIQHSQKAKSKVVVFGMKIPPNYGTAYSQAFENNYKVVSQTYQVKLLPFFLDGVAGHKSLMQNDQIHPNAKAQSILLNNAYPYIKGAL
# B4: AbTE:T120R/A121R (protein)
# chain: B3 chain with E17G, T120R, A121R
# B5: Acinetobacter baylyi acyl-ACP thioesterase (AbTE) wild type (protein)
# chain: B3 chain with E17G
# B6: AbTE:G17E/A165E (protein)
# chain: B3 chain with A165E
# B7: AbTE:G17R (protein)
# chain: B3 chain with E17R
# B8: AbTE:G17R/A165R (protein)
# chain: B3 chain with E17R, A165R
# B9: AbTE:G17R/A165E (protein)
# chain: B3 chain with E17R, A165E
# B10: AbTE:G17E/A165R (protein)
# chain: B3 chain with A165R
# Legend:
# 15N-octanoyl-AcpP = biological target: T2, 15N-octanoyl-AcpP (Escherichia coli, UniProt P0A6A8 2-78, octanoyl group, 15N-labelled (printed as 15N-octanoyl-AcpP); attachment site not given); assay: NMR titrations between 15N-octanoyl-AcpP and the AbTEs
# T2 construct: Purified, labelled AcpP of the NMR titrations; also called 15N-AcpP; E. coli ACP
# [1] = biological target: T1, E. coli fatty acid biosynthesis acyl …
Binder,"secreted MCFAs, E. coli (GC/MS) [1]","secreted MCFAs, E. coli MG1655, 24 hrs (GC/MS) [1]","secreted MCFAs, E. coli, 72 hrs (GC/MS) [1]",further results
B1,,,,binding result (15N-octanoyl-AcpP): binds
B2,,,,binding result (15N-octanoyl-AcpP): binds
B3,"˜21 mg/L and 14 mg/L of secreted MCFAs, respectively",,,
B4,,,,"secreted MCFAs, E. coli, 24 hrs (GC/MS) [1]: AbTE:T120R/A121R produced ˜45 mg/L of secreted MCFAs"
B5,,˜29 mg/L of secreted MCFAs,from ˜29 mg/L to ˜79 mg/L,
B6,"˜21 mg/L and 14 mg/L of secreted MCFAs, respectively",,,
B7,,˜76 mg/L of secreted MCFAs,cultivating E. coli expressing AbTE:G17R for 72 hrs did not result in any changes in MCFA titers,
B8,,˜98 mg/L of secreted MCFAs,increased from 98 mg/L to 131 mg/L when extending the cultivation time from 24 hrs to 72 hrs,secreted MCFA titers against AbTE:G17R [1]: a 29% increase in secreted MCFA titers when compared to expression of AbTE:G17R; secreted MCFA titers against AbTE:WT [1]: a more than 3-fold in secreted MCFA titers when compared to AbTE:WT
B9,AbTE:G17R/A165E resulted in ˜57 mg/L of secreted MCFAs,,,
B10,This favorable effect in secreted MCFAs or secreted fatty acids of all chain lengths is not seen in AbTE:G17E/A165R,,,
